β-galactosidase assay data for five molecules are collected here from publication PMC2234252 (The Journal of Cell Biology, 2008).

The target of this assay is T1, hZwint-1 (human, UniProt O95229 1-277).
T1 sequence (looked up): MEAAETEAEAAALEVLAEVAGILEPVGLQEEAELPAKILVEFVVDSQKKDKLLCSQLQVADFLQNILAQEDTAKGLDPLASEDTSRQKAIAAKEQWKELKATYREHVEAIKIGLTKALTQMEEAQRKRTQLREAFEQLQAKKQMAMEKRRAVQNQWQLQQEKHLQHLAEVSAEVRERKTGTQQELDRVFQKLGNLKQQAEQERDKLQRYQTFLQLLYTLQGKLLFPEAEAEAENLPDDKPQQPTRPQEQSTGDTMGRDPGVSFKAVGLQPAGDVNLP
The assay can be described thus: two-hybrid.

B1: hZW10 DI69AA (natural protein, human, UniProt O43264 1-779, looked up)
chain: MASFVTEVLAHSGRLEKEDLGTRISRLTRRVEEIKGEVCNMISKKYSEFLPSMQSAQGLITQVDKLSEAADLLKSRIESEVRRDLHVSTGEFTDLKQQLERDSVVLSLLKQLQEFSTAIEEYNCALTEKKYVTGAQRLEEAQKCLKLLKSRKCFDLKILKSLSMELTIQKQNILYHLGEEWQKLIVWKFPPSKDTSSLESYLQTELHLYTEQSHKEEKTPMPPISSVLLAFSVLGELHSKLKSFGQMLLKYILRPLASCPSLHAVIESQPNIVIIRFESIMTNLEYPSPSEVFTKIRLVLEVLQKQLLDLPLDTDLENEKTSTVPLAEMLGDMIWEDLSECLIKNCLVYSIPTNSSKLQQYEEIIQSTEEFENALKEMRFLKGDTTDLLKYARNINSHFANKKCQDVIVAARNLMTSEIHNTVKIIPDSKINVPELPTPDEDNKLEVQKVSNTQYHEVMNLEPENTLDQHSFSLPTCRISESVKKLMELAYQTLLEATTSSDQCAVQLFYSVRNIFHLFHDVVPTYHKENLQKLPQLAAIHHNNCMYIAHHLLTLGHQFRLRLAPILCDGTATFVDLVPGFRRLGTECFLAQMRAQKGELLERLSSARNFSNMDDEENYSAASKAVRQVLHQLKRLGIVWQDVLPVNIYCKAMGTLLNTAISEVIGKITALEDISTEDGDRLYSLCKTVMDEGPQVFAPLSEESKNKKYQEEVPVYVPKWMPFKELMMMLQASLQEIGDRWADGKGPLAAAFSSSEVKALIRALFQNTERRAAALAKIK
For the molecule B1, the β-galactosidase assay is 1.2.

B2: hZW10 GLI58AAA (natural protein, human, UniProt O43264 1-779, looked up)
chain: MASFVTEVLAHSGRLEKEDLGTRISRLTRRVEEIKGEVCNMISKKYSEFLPSMQSAQAAATQVDKLSEDIDLLKSRIESEVRRDLHVSTGEFTDLKQQLERDSVVLSLLKQLQEFSTAIEEYNCALTEKKYVTGAQRLEEAQKCLKLLKSRKCFDLKILKSLSMELTIQKQNILYHLGEEWQKLIVWKFPPSKDTSSLESYLQTELHLYTEQSHKEEKTPMPPISSVLLAFSVLGELHSKLKSFGQMLLKYILRPLASCPSLHAVIESQPNIVIIRFESIMTNLEYPSPSEVFTKIRLVLEVLQKQLLDLPLDTDLENEKTSTVPLAEMLGDMIWEDLSECLIKNCLVYSIPTNSSKLQQYEEIIQSTEEFENALKEMRFLKGDTTDLLKYARNINSHFANKKCQDVIVAARNLMTSEIHNTVKIIPDSKINVPELPTPDEDNKLEVQKVSNTQYHEVMNLEPENTLDQHSFSLPTCRISESVKKLMELAYQTLLEATTSSDQCAVQLFYSVRNIFHLFHDVVPTYHKENLQKLPQLAAIHHNNCMYIAHHLLTLGHQFRLRLAPILCDGTATFVDLVPGFRRLGTECFLAQMRAQKGELLERLSSARNFSNMDDEENYSAASKAVRQVLHQLKRLGIVWQDVLPVNIYCKAMGTLLNTAISEVIGKITALEDISTEDGDRLYSLCKTVMDEGPQVFAPLSEESKNKKYQEEVPVYVPKWMPFKELMMMLQASLQEIGDRWADGKGPLAAAFSSSEVKALIRALFQNTERRAAALAKIK
B2 yielded a β-galactosidase assay of 2.7.

B3: hZW10 SE79AA (natural protein, human, UniProt O43264 1-779, looked up)
chain: MASFVTEVLAHSGRLEKEDLGTRISRLTRRVEEIKGEVCNMISKKYSEFLPSMQSAQGLITQVDKLSEDIDLLKSRIEAAVRRDLHVSTGEFTDLKQQLERDSVVLSLLKQLQEFSTAIEEYNCALTEKKYVTGAQRLEEAQKCLKLLKSRKCFDLKILKSLSMELTIQKQNILYHLGEEWQKLIVWKFPPSKDTSSLESYLQTELHLYTEQSHKEEKTPMPPISSVLLAFSVLGELHSKLKSFGQMLLKYILRPLASCPSLHAVIESQPNIVIIRFESIMTNLEYPSPSEVFTKIRLVLEVLQKQLLDLPLDTDLENEKTSTVPLAEMLGDMIWEDLSECLIKNCLVYSIPTNSSKLQQYEEIIQSTEEFENALKEMRFLKGDTTDLLKYARNINSHFANKKCQDVIVAARNLMTSEIHNTVKIIPDSKINVPELPTPDEDNKLEVQKVSNTQYHEVMNLEPENTLDQHSFSLPTCRISESVKKLMELAYQTLLEATTSSDQCAVQLFYSVRNIFHLFHDVVPTYHKENLQKLPQLAAIHHNNCMYIAHHLLTLGHQFRLRLAPILCDGTATFVDLVPGFRRLGTECFLAQMRAQKGELLERLSSARNFSNMDDEENYSAASKAVRQVLHQLKRLGIVWQDVLPVNIYCKAMGTLLNTAISEVIGKITALEDISTEDGDRLYSLCKTVMDEGPQVFAPLSEESKNKKYQEEVPVYVPKWMPFKELMMMLQASLQEIGDRWADGKGPLAAAFSSSEVKALIRALFQNTERRAAALAKIK
B3 showed a β-galactosidase assay of 131.

B4: hZW10 S55A (natural protein, human, UniProt O43264 1-779, looked up)
chain: MASFVTEVLAHSGRLEKEDLGTRISRLTRRVEEIKGEVCNMISKKYSEFLPSMQAAQGLITQVDKLSEDIDLLKSRIESEVRRDLHVSTGEFTDLKQQLERDSVVLSLLKQLQEFSTAIEEYNCALTEKKYVTGAQRLEEAQKCLKLLKSRKCFDLKILKSLSMELTIQKQNILYHLGEEWQKLIVWKFPPSKDTSSLESYLQTELHLYTEQSHKEEKTPMPPISSVLLAFSVLGELHSKLKSFGQMLLKYILRPLASCPSLHAVIESQPNIVIIRFESIMTNLEYPSPSEVFTKIRLVLEVLQKQLLDLPLDTDLENEKTSTVPLAEMLGDMIWEDLSECLIKNCLVYSIPTNSSKLQQYEEIIQSTEEFENALKEMRFLKGDTTDLLKYARNINSHFANKKCQDVIVAARNLMTSEIHNTVKIIPDSKINVPELPTPDEDNKLEVQKVSNTQYHEVMNLEPENTLDQHSFSLPTCRISESVKKLMELAYQTLLEATTSSDQCAVQLFYSVRNIFHLFHDVVPTYHKENLQKLPQLAAIHHNNCMYIAHHLLTLGHQFRLRLAPILCDGTATFVDLVPGFRRLGTECFLAQMRAQKGELLERLSSARNFSNMDDEENYSAASKAVRQVLHQLKRLGIVWQDVLPVNIYCKAMGTLLNTAISEVIGKITALEDISTEDGDRLYSLCKTVMDEGPQVFAPLSEESKNKKYQEEVPVYVPKWMPFKELMMMLQASLQEIGDRWADGKGPLAAAFSSSEVKALIRALFQNTERRAAALAKIK
For the molecule B4, the β-galactosidase assay is 449.

B5: hZW10 SE67AA (natural protein, human, UniProt O43264 1-779, looked up)
chain: MASFVTEVLAHSGRLEKEDLGTRISRLTRRVEEIKGEVCNMISKKYSEFLPSMQSAQGLITQVDKLAADIDLLKSRIESEVRRDLHVSTGEFTDLKQQLERDSVVLSLLKQLQEFSTAIEEYNCALTEKKYVTGAQRLEEAQKCLKLLKSRKCFDLKILKSLSMELTIQKQNILYHLGEEWQKLIVWKFPPSKDTSSLESYLQTELHLYTEQSHKEEKTPMPPISSVLLAFSVLGELHSKLKSFGQMLLKYILRPLASCPSLHAVIESQPNIVIIRFESIMTNLEYPSPSEVFTKIRLVLEVLQKQLLDLPLDTDLENEKTSTVPLAEMLGDMIWEDLSECLIKNCLVYSIPTNSSKLQQYEEIIQSTEEFENALKEMRFLKGDTTDLLKYARNINSHFANKKCQDVIVAARNLMTSEIHNTVKIIPDSKINVPELPTPDEDNKLEVQKVSNTQYHEVMNLEPENTLDQHSFSLPTCRISESVKKLMELAYQTLLEATTSSDQCAVQLFYSVRNIFHLFHDVVPTYHKENLQKLPQLAAIHHNNCMYIAHHLLTLGHQFRLRLAPILCDGTATFVDLVPGFRRLGTECFLAQMRAQKGELLERLSSARNFSNMDDEENYSAASKAVRQVLHQLKRLGIVWQDVLPVNIYCKAMGTLLNTAISEVIGKITALEDISTEDGDRLYSLCKTVMDEGPQVFAPLSEESKNKKYQEEVPVYVPKWMPFKELMMMLQASLQEIGDRWADGKGPLAAAFSSSEVKALIRALFQNTERRAAALAKIK
As to B5, the β-galactosidase assay came out at 1.8.
